# Reference: US20240417464A1 (published 2024)
# B1: antibody-half molecule B7 with IC17H and IC17L-k0 (IC17H-DB220v2.n.HATF.A/IC17L-k0) (antibody, human IgG1, kappa)
# heavy: QVQLQQSGPQLVRPGASVKISCKASGYSFTSYWMHWVNQRPGQGLEWIGMIDPSYSETRLNQKFKDKATLTVDKSSSTAYMQLSSPTSEDSAVYYCALYGNYFDYWGQGTTLTVSSASTKGPSVFPLAPSSKSTSGGTAALGCLVKDYFPEPVTVSWNSGALTSGVHTFPAVLQSSGLYSLSSVVTVPSSSLGTQTYICNVNHKPSNTKVDKKVEPKSCDKTHTSPPSPAPELLGGPSVFLFPPKPKDTLMISRTPEVTCVVVDVSHEEPEVKFNWYVDGVEVHNAKTKPREEQYNSTYRVVSVLTVLHQDWLNGKEYKCKVSNDALPMPIEETISKAKGQPREPQVYTLPPSRDELTKNQVHLTCLVKGFYPSDIAVEWESNGQPENNYKTTPPYLDSDGSFALYSDLTVDKSRWQQGNVFSCSVMHEALHNHYTQKSLSLSP
# light: DIQMTQSSSSFSVSLGDRVTITCKASEDIYNRLAWYQQKPGNAPRLLISGATSLETGVPSRFSGSGSGKDYTLSITSLQTEDVATYYCQQYWSTPYTFGGGTKLEVKRTVAAPSVFIFPPSDEQLKSGTASVVCLLNNFYPREAKVQWKVDNALQSGNSQESVTEQDSKDSTYSLSSTLTLSKADYEKHKVYACEVTHQGLSSPVTKSFNRGEC
# Molecular target: antibody-half molecule A7 with PF1H and PF1L-k0 (PF1H-DA303v2.n.HATF.B/PF1L-k0)
# Sequence (heavy, as listed by the source): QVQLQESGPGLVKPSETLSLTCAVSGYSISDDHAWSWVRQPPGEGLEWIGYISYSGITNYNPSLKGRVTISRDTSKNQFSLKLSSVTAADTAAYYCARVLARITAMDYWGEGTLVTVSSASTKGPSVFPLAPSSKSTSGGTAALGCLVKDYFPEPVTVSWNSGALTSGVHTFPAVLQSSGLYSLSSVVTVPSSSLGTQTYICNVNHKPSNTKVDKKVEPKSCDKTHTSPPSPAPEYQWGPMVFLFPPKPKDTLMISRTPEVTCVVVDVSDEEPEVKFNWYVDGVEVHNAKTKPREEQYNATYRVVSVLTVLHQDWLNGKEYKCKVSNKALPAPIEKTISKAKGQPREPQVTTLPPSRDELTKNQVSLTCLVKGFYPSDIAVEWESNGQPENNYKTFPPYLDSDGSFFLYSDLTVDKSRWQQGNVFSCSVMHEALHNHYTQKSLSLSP
# Test: SPR (Biacore T200), about 50 RU of half molecule A captured on chip-bound biotinylated antigen peptide, half molecule B at 2.5 mg/mL as analyte (Example 10)
# Procedure: The interaction between the obtained antibody-half molecules was analyzed using Biacore (registered trademark) T200. Biotin CAPture Kit, Series S (GE Healthcare) was used for the measurement, and HBS-EP+10X (GE Healthcare) diluted 1/10th was used as a running buffer. The measurement temperature was 25° C. For the sensor chip, Series S Sensor Chip CAP (GE Healthcare) onto which previously-biotinylated antigen peptides were allowed to interact and thereby immobilized was used. These chips were allowed to capture approximately 50 RU of the antibody-half molecule A of interest and then interact with the antibody-half molecule B of interest diluted with the running buffer at 2.5 mg/mL for 180 seconds at a flow rate of 30 μL/min, and measurement was carried out. The molar binding ratio was calculated based on the following Formula 2. The antibody-half molecule A captured on the chip was washed as described in the instructions attached to the kit, and the chip was regenerated and reused.
# At this time, for the antibody-half molecule to be captured, PF1H (SEQ ID NO: 22), which is the H chain variable region portion of the anti-human IL6 receptor antibody described in WO 2009/041621, was used as the H chain variable region portion, PF1L (SEQ ID NO: 23), which is the L chain variable region portion of the anti-human IL6 receptor antibody described in WO 2009/041621, was used as the L chain variable region portion, and k0 was used as the L chain constant region portion. In addition, for the antibody-half molecules used as analytes, IC17H (SEQ ID NO: 24), which is the anti-KLH antibody described in WO 2015/174439, was used as the H chain variable region, IC17L (SEQ ID NO: 25), which is the anti-KLH antibody described in WO 2015/174439, was used as the L chain variable region, and k0 was used as L chain constant region.
binder,measurement,value
B1,molar binding ratio,0.32 molar ratio
